Experiment [1] concerns the target T1, rHuman ErbB2/Fc Chimera, CF (R&D Systems Cat#1129-ER) (human, UniProt P04626 23-652).
T1 construct: Bought reagent; also called human epidermal growth factor 2 receptor; Fc part of the bought chimera not given
Kind of experiment: ECL Multispot (MSD), 10 nM Fab; blank of this row 363.

Experiment [2] concerns the target T2, rHuman P-Cadherin/Fc Chimera, CF (R&D Systems Cat#861-PC) (human, UniProt P22223 108-654).
T2 construct: Bought reagent; Fc part of the bought chimera not given
The description is as above.

Experiment [3] concerns the target T3, rHuman Erythropoietin R/Fc Chimera, CF (R&D Systems Cat#963-ER) (human, UniProt P19235 25-250).
T3 construct: Bought reagent; also called EPO R; EPO R/Fc; Fc part of the bought chimera not given
T3 sequence (looked up): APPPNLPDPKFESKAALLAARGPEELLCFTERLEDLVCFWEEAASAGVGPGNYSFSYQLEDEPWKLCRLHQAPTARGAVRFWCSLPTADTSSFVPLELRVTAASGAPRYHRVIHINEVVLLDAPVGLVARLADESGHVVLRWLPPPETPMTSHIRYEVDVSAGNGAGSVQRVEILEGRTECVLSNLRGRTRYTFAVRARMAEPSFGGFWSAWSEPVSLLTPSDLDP
The description is as above.

In experiment [4] the target is T4, rHuman IGF-1 sR, (IGF-1 sR), CF (R&D Systems Cat#391-GR) (human, UniProt P08069 31-932).
T4 construct: Bought soluble receptor; also called insulin-like growth factor-1 soluble receptor
The description is as above.

Experiment [5] has as its target T5, rHuman HGF R/c-MET/Fc Chimera, CF (R&D Systems Cat#358-MT/CF) (human, UniProt P08581 25-932).
T5 construct: Bought reagent; also called HGF R/Fc; hepatocyte growth factor receptor; Fc part of the bought chimera not given
The experiment is described as above.

Experiment [6] concerns the target T6, rHuman CD44/Fc Chimera, CF (R&D Systems Cat#3660-CD) (human, UniProt P16070 21-220).
T6 construct: Bought reagent; Fc part of the bought chimera not given
The experiment is described as above.

Experiment [7] concerns the target T7, rHuman EGF R/Fc Chimera, CF (R&D Systems Cat#344-ER) (human, UniProt P00533 25-645).
T7 construct: Bought reagent; also called epidermal growth factor receptor; Fc part of the bought chimera not given
The experiment is described as above.

Experiment [8] concerns the target T8, rHuman Notch-1/Fc Chimera, CF (R&D Systems Cat#3647-TK) (human, UniProt P46531 19-526).
T8 construct: Bought reagent; Fc part of the bought chimera not given
The experiment is described as above.

For experiment [9], the target named is T1, rHuman ErbB2/Fc Chimera, CF (R&D …). Kind of experiment: ECL Multispot (MSD), 10 nM Fab; blank of this row 204.
The target of experiment [10] is T2, rHuman P-Cadherin/Fc Chimera, CF (R&D …). The description is as above.
The target of experiment [11] is T3, rHuman Erythropoietin R/Fc Chimera, CF …. Described as above.
Experiment [12] concerns the target T4, rHuman IGF-1 sR, (IGF-1 sR), CF (R&D …). The experiment is described as above.
Experiment [13] concerns the target T5, rHuman HGF R/c-MET/Fc Chimera, CF (R&D …). The description is as above.
For experiment [14], the target named is T6, rHuman CD44/Fc Chimera, CF (R&D Systems …). The experiment is described as above.
For experiment [15], the target named is T7, rHuman EGF R/Fc Chimera, CF (R&D …). The experiment is described as above.
The target of experiment [16] is T8, rHuman Notch-1/Fc Chimera, CF (R&D …). The experiment is described as above.
For experiment [17], the target named is T1, rHuman ErbB2/Fc Chimera, CF (R&D …). Kind of experiment: ECL Multispot (MSD), 10 nM Fab; blank of this row 203.
The target of experiment [18] is T2, rHuman P-Cadherin/Fc Chimera, CF (R&D …). Described as above.
The target in experiment [19] is T3, rHuman Erythropoietin R/Fc Chimera, CF …. The description is as above.
The target in experiment [20] is T4, rHuman IGF-1 sR, (IGF-1 sR), CF (R&D …). The experiment is described as above.
Experiment [21] has as its target T5, rHuman HGF R/c-MET/Fc Chimera, CF (R&D …). The experiment is described as above.
Experiment [22] has as its target T6, rHuman CD44/Fc Chimera, CF (R&D Systems …). The description is as above.
Experiment [23] addresses T7, rHuman EGF R/Fc Chimera, CF (R&D …). Described as above.
The target in experiment [24] is T8, rHuman Notch-1/Fc Chimera, CF (R&D …). Described as above.

T5 sequence (P08581 25-932, change not shown): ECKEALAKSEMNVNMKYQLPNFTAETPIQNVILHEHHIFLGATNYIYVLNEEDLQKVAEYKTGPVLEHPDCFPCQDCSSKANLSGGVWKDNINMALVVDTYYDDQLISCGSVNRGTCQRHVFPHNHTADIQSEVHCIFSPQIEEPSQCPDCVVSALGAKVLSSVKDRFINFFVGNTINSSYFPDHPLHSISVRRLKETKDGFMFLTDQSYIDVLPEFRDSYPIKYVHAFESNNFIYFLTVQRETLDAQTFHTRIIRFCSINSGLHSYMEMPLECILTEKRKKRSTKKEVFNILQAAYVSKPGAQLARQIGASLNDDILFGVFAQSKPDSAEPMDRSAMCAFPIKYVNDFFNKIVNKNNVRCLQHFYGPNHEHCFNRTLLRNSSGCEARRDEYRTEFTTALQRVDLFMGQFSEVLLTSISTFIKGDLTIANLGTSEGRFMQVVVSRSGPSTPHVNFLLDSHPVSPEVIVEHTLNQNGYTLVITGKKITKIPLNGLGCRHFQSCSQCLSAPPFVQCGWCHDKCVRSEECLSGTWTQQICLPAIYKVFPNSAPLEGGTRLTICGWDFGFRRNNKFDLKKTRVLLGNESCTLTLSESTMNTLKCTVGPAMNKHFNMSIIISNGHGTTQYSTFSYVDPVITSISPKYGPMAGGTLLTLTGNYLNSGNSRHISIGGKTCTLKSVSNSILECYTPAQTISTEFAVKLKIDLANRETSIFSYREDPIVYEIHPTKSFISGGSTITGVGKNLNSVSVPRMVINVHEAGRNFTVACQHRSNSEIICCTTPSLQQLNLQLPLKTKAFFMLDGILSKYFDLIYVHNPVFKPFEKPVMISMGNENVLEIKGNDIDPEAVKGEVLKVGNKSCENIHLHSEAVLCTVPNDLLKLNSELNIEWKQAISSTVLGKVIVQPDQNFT

B1: Fab VH1-46_IGHD6-6*01_IGHJ1*01 S102A/S103P/S104F (APF) & L6_IGKJ1*01 (Fab, V domains shown)
VH: QVQLVQSGAEVKKPGASVKVSCKASGYTFTSYYMHWVRQAPGQGLEWMGIINPSGGSTSYAQKFQGRVTMTRDTSTSTVYMELSSLRSEDTAVYYCAREEYAPFSAEYFQHWGQGTLVTVSS
VL: not shown
notes: Tested as Fab made in E. coli; also called H:APF & L:wt; APF triple mutant
B1: the ECL signal in experiment [1] turned out to be 525; in experiment [2], 305; in [3] it was 494; in [4], 361; in experiment [5], 422; in [6], 345. The ECL signal in experiment [7] was 467; in experiment [8], 376; in experiment [9] it was 302; in experiment [10], 118; in [11], 343; in [12] it was 213. In addition, the ECL signal came to 200 in experiment [13], 340 in experiment [14], 394 in experiment [15] and 283 in experiment [16].

B2: Fab VH1-46_IGHD6-6*01_IGHJ1*01 S102A/S103P/S104F H111S & L6_IGKJ1*01 (Fab, V domains shown)
VH: QVQLVQSGAEVKKPGASVKVSCKASGYTFTSYYMHWVRQAPGQGLEWMGIINPSGGSTSYAQKFQGRVTMTRDTSTSTVYMELSSLRSEDTAVYYCAREEYAPFSAEYFQSWGQGTLVTVSS
VL: not shown
notes: Fab format as for m1; also called APF H111S
On to B2, for which the ECL signal was 314 in experiment [17]; 178 in experiment [18]; 277 in [19]; 136 in [20]; 235 in experiment [21]; 244 in experiment [22]. Further, the ECL signal in experiment [23] stood at 286; in [24], 272.

Source of the values: patent US20120316071A1 (published 2012).
